To fix the notation:
B1: CPEB3 Ribozyme (parent)
chain: GGGGGCCACAGCAGAAGCGUUCACGUCGCGGCCCCUGUCAGAUUCUGGUGAAUCUGCGAAUUCUGCUGU

This data set covers variants of B1. Put plainly: self-cleavage, relative activity (ratio to wild type); higher = more cleavage; co-transcriptional.
For GGGGGCCACAGCAGAAGCGUUCACGUCGCGGCCCCUGUCAGAUCCUGGUGAAUCUGCGAAUGCUGCUGU [U44C U62G], the self-cleavage is 0.664.
In the case of GGGGGCCACAGCAGAAGCGUUCACGUCGCGGCCCCUGUCAGAUCCUGGUGAAUCUGCGAAUCCUGCUGU [U44C U62C], the self-cleavage turned out to be 0.572.
Regarding GGGGGCCACAGCAGAAGCGUUCACGUCGCGGCCCCUGUCAGAUCCUGGUGAAUCUGCGAAUUCUGCUGC [U44C U69C], the self-cleavage was 1.07.
In the case of GGGGGCCACAGCAGAAGCGUUCACGUCGCGGCCCCUGUCAGAUCCUGGUGAAUCUGCGAAUUCUGCUGA [U44C U69A], the self-cleavage amounted to 0.927.
In the case of GGGGGCCACAGCAGAAGCGUUCACGUCGCGGCCCCUGUCAGAUCCUGGUGAAUCUGCGAAUUCUGCUGG [U44C U69G], the self-cleavage was determined as 1.02.
Turning to GGGGGCCACAGCAGAAGCGUUCACGUCGCGGCCCCUGUCAGAUGCUGGUGAAUCUGCGAAUUCUGGUGU [U44G C66G], the self-cleavage turned out to be 0.707.
The same measure for GGGGGCCACAGCAGAAGCGUUCACGUCGCGGCCCCUGUCAGAUGCUGGUGAGUCUGCGAAUUCUGCUGU [U44G A52G]: 0.943; for GGGGGCCACAGCAGAAGCGUUCACGUCGCGGCCCCUGUCAGAUGCUGGUGAUUCUGCGAAUUCUGCUGU [U44G A52U]: 0.975.
Consider GGGGGCCACAGCAGAAGCGUUCACGUCGCGGCCCCUGUCAGAUGCUGGUGAAUCUGCGAAUUCUGCUGU [U44G], for which the self-cleavage came to 0.985.
Regarding GGGGGCCACAGCAGAAGCGUUCACGUCGCGGCCCCUGUCAGAUCCAGGUGAAUCUGCGAAUUCUGCUGU [U44C U46A], the self-cleavage is 0.958.
In the case of GGGGGCCACAGCAGAAGCGUUCACGUCGCGGCCCCUGUCAGAUCCCGGUGAAUCUGCGAAUUCUGCUGU [U44C U46C], the self-cleavage stood at 0.972.
In the case of GGGGGCCACAGCAGAAGCGUUCACGUCGCGGCCCCUGUCAGAUCCUGGUGAAUCUGCGAACUCUGCUGU [U44C U61C], the self-cleavage was 0.317.
As for GGGGGCCACAGCAGAAGCGUUCACGUCGCGGCCCCUGUCAGAUCCUGGUGAAUCUGCGAAUUCUGCGGU [U44C U67G], the self-cleavage is 0.931.
As for GGGGGCCACAGCAGAAGCGUUCACGUCGCGGCCCCUGUCAGAUCCUGGUGAAUCUGCGAAUUCUGCAGU [U44C U67A], the self-cleavage worked out at 0.954.
The result for GGGGGCCACAGCAGAAGCGUUCACGUCGCGGCCCCUGUCAGAUCCUGGUGAAGCUGCGAAUUCUGCUGU [U44C U53G] reads 0.747.
Consider GGGGGCCACAGCAGAAGCGUUCACGUCGCGGCCCCUGUCAGAUCCUGGUGAACCUGCGAAUUCUGCUGU [U44C U53C], for which the self-cleavage was found to be 0.647.
The same measure for GGGGGCCACAGCAGAAGCGUUCACGUCGCGGCCCCUGUCAGAUCCUGGUGAAACUGCGAAUUCUGCUGU [U44C U53A]: 0.895; for GGGGGCCACAGCAGAAGCGUUCACGUCGCGGCCCCUGUCAGAUCCUGGUGAAUCAGCGAAUUCUGCUGU [U44C U55A]: 0.524; for GGGGGCCACAGCAGAAGCGUUCACGUCGCGGCCCCUGUCAGAUCCUGGUGAAUCCGCGAAUUCUGCUGU [U44C U55C]: 0.473.
For the variant GGGGGCCACAGCAGAAGCGUUCACGUCGCGGCCCCUGUCAGAUCCUGGGGAAUCUGCGAAUUCUGCUGU [U44C U49G], the self-cleavage is 0.959.
For the variant GGGGGCCACAGCAGAAGCGUUCACGUCGCGGCCCCUGUCAGAUCCUGGAGAAUCUGCGAAUUCUGCUGU [U44C U49A], the self-cleavage came out at 0.931.
For the variant GGGGGCCACAGCAGAAGCGUUCACGUCGCGGCCCCUGUCAGAUCCUGGCGAAUCUGCGAAUUCUGCUGU [U44C U49C], the self-cleavage amounted to 0.83.
The same measure for GGGGGCCACAGCAGAAGCGUUCACGUCGCGGCCCCUGUCAGAUGCUGGUGAAUCUGCGACUUCUGCUGU [U44G A60C]: 0.368.
GGGGGCCACAGCAGAAGCGUUCACGUCGCGGCCCCUGUCAGAUGCUGGUGAAUCUGCGAGUUCUGCUGU [U44G A60G]: the self-cleavage was found to be 0.819.
On to GGGGGCCACAGCAGAAGCGUUCACGUCGCGGCCCCUGUCAGAUGCUGGUGAAUCUGCGAUUUCUGCUGU [U44G A60U], for which the self-cleavage stood at 0.382.
As for GGGGGCCACAGCAGAAGCGUUCACGUCGCGGCCCCUGUCAGAUGCUGGUGAAUGUGCGAAUUCUGCUGU [U44G C54G], the self-cleavage is 0.417.
Take GGGGGCCACAGCAGAAGCGUUCACGUCGCGGCCCCUGUCAGAUGCUGGUGAAUUUGCGAAUUCUGCUGU [U44G C54U]: the self-cleavage came to 0.87.
For the variant GGGGGCCACAGCAGAAGCGUUCACGUCGCGGCCCCUGUCAGAUCCUGGUGAAUCUGCGAAUUCUGCUCU [U44C G68C], the self-cleavage stood at 0.949.
GGGGGCCACAGCAGAAGCGUUCACGUCGCGGCCCCUGUCAGAUCCUGGUGAAUCUGCGAAUUCUGCUAU [U44C G68A]: the self-cleavage was 0.979.
The result for GGGGGCCACAGCAGAAGCGUUCACGUCGCGGCCCCUGUCAGAUGCUGGUGAAUCUGCGUAUUCUGCUGU [U44G A59U] reads 0.612; that for GGGGGCCACAGCAGAAGCGUUCACGUCGCGGCCCCUGUCAGAUGCUGGUGAAUCUGCGGAUUCUGCUGU [U44G A59G], 0.951.
Regarding GGGGGCCACAGCAGAAGCGUUCACGUCGCGGCCCCUGUCAGAUCCUGGUGAAUCUGCGAAUUCGGCUGU [U44C U64G], the self-cleavage was found to be 0.719.
For the variant GGGGGCCACAGCAGAAGCGUUCACGUCGCGGCCCCUGUCAGAUCCUGGUGAAUCUGCGAAUUCAGCUGU [U44C U64A], the self-cleavage was 0.662.
The same measure for GGGGGCCACAGCAGAAGCGUUCACGUCGCGGCCCCUGUCAGAUGCUGGUGAAUCUGCGAAUUAUGCUGU [U44G C63A]: 0.835; for GGGGGCCACAGCAGAAGCGUUCACGUCGCGGCCCCUGUCAGAUGCUGGUGAAUCUGCGAAUUUUGCUGU [U44G C63U]: 0.918; for GGGGGCCACAGCAGAAGCGUUCACGUCGCGGCCCCUGUCAGAUGAUGGUGAAUCUGCGAAUUCUGCUGU [U44G C45A]: 0.932.
As for GGGGGCCACAGCAGAAGCGUUCACGUCGCGGCCCCUGUCAGAUGCUGGUGCAUCUGCGAAUUCUGCUGU [U44G A51C], the self-cleavage worked out at 0.966.
Turning to GGGGGCCACAGCAGAAGCGUUCACGUCGCGGCCCCUGUCAGAUGCUGGUGGAUCUGCGAAUUCUGCUGU [U44G A51G], the self-cleavage was 0.671.
With GGGGGCCACAGCAGAAGCGUUCACGUCGCGGCCCCUGUCAGAUGCUGGUGUAUCUGCGAAUUCUGCUGU [U44G A51U], the self-cleavage turned out to be 0.941.
